Laboratory results: US20120172293A1 (Takeda / Millennium, published 2012)
Non-standard residues stand in square brackets, D forms with d. *: point of attachment. Lys(Me2) = CN(C)CCCC[C@H](N)C(=O)O; tBuAla = CC(C)(C)C[C@H](N)C(=O)O; 4Pal = N[C@@H](Cc1ccncc1)C(=O)O; Cha = N[C@@H](CC1CCCCC1)C(=O)O; Cit = NC(=O)NCCC[C@H](N)C(=O)O; d(αMeP) = C[C@]1(C(=O)O)CCCN1; αMeP = C[C@@]1(C(=O)O)CCCN1; Isobutyryl = CC(C)C(=O)*; Nle = CCCC[C@H](N)C(=O)O; Dab = NCC[C@H](N)C(=O)O; dAze = O=C(O)[C@H]1CCN1; Aib = CC(C)(N)C(=O)O; GABA = NCCCC(=O)O

Tests used:
[1] = molecular target: human Y2 receptor (human) (UniProt P49146); test: cell-based or functional assay
[2] = molecular target: human Y2 receptor (human) (UniProt P49146); test: RBA: [125I]-PYY displacement, hY2R/CHO membranes

human Y2 receptor (human), sequence (P49146 whole entry): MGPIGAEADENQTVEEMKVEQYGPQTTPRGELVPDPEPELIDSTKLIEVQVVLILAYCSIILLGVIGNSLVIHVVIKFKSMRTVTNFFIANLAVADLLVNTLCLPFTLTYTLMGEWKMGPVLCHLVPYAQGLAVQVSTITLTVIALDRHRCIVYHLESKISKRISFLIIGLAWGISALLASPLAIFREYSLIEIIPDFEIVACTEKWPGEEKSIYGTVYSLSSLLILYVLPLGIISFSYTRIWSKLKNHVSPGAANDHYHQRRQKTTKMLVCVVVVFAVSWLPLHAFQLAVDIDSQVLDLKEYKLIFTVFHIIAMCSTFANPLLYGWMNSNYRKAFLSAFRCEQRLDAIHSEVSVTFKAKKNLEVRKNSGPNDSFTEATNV

Binder	GBA EC50 Ratio (vs PYY(3-36)), [35S]GTPγS [1]	IC50 Ratio (vs PYY(3-36)) [2]
Ac-S[dP]RH[Cha][Cha]N[Lys(Me2)][Aib]TRQR[Cha]-NH2 (SMILES CC(=O)N[C@@H](CO)C(=O)N1CCC[C@@H]1C(=O)N[C@@H](CCCNC(=N)N)C(=O)N[C@@H](Cc1c[nH]cn1)C(=O)N[C@@H](CC1CCCCC1)C(=O)N[C@@H](CC1CCCCC1)C(=O)N[C@@H](CC(N)=O)C(=O)N[C@@H](CCCCN(C)C)C(=O)NC(C)(C)C(=O)N[C@H](C(=O)N[C@@H](CCCNC(=N)N)C(=O)N[C@@H](CCC(N)=O)C(=O)N[C@@H](CCCNC(=N)N)C(=O)N[C@@H](CC1CCCCC1)C(N)=O)[C@@H](C)O) [Ac-[D-Pro24, Cha27,28,36, Lys(Me2)30, Aib31]-PYY(23-36)]	0.7	0.8
Ac-E[dP]R[4Pal][Cha][tBuAla]NK[Aib]TRQR[Cha]-NH2 (SMILES CC(=O)N[C@@H](CCC(=O)O)C(=O)N1CCC[C@@H]1C(=O)N[C@@H](CCCNC(=N)N)C(=O)N[C@@H](Cc1ccncc1)C(=O)N[C@@H](CC1CCCCC1)C(=O)N[C@@H](CC(C)(C)C)C(=O)N[C@@H](CC(N)=O)C(=O)N[C@@H](CCCCN)C(=O)NC(C)(C)C(=O)N[C@H](C(=O)N[C@@H](CCCNC(=N)N)C(=O)N[C@@H](CCC(N)=O)C(=O)N[C@@H](CCCNC(=N)N)C(=O)N[C@@H](CC1CCCCC1)C(N)=O)[C@@H](C)O) [Ac-[Glu23, D-Pro24, Pya(4)26, Cha27,36, Leu(Me)28, Lys30, Aib31]-PYY(23-36)]	0.86	0.48
Ac-S[GABA]RH[Cha][Cha]NL[Aib]TRQR[Cha]-NH2 (SMILES CC(=O)N[C@@H](CO)C(=O)NCCCC(=O)N[C@@H](CCCNC(=N)N)C(=O)N[C@@H](Cc1c[nH]cn1)C(=O)N[C@@H](CC1CCCCC1)C(=O)N[C@@H](CC1CCCCC1)C(=O)N[C@@H](CC(N)=O)C(=O)N[C@@H](CC(C)C)C(=O)NC(C)(C)C(=O)N[C@H](C(=O)N[C@@H](CCCNC(=N)N)C(=O)N[C@@H](CCC(N)=O)C(=O)N[C@@H](CCCNC(=N)N)C(=O)N[C@@H](CC1CCCCC1)C(N)=O)[C@@H](C)O) [Ac-[GABA24, Cha27,28,36, Aib31]-PYY(23-36)]	3	5.8
Ac-E[dP][Nle][4Pal][Cha][Cha]NK[Aib]TRQR[Cha]-NH2 (SMILES CCCC[C@H](NC(=O)[C@H]1CCCN1C(=O)[C@H](CCC(=O)O)NC(C)=O)C(=O)N[C@@H](Cc1ccncc1)C(=O)N[C@@H](CC1CCCCC1)C(=O)N[C@@H](CC1CCCCC1)C(=O)N[C@@H](CC(N)=O)C(=O)N[C@@H](CCCCN)C(=O)NC(C)(C)C(=O)N[C@H](C(=O)N[C@@H](CCCNC(=N)N)C(=O)N[C@@H](CCC(N)=O)C(=O)N[C@@H](CCCNC(=N)N)C(=O)N[C@@H](CC1CCCCC1)C(N)=O)[C@@H](C)O) [Ac-[Glu23, D-Pro24, Nle25, Pya(4)26, Cha27,28,36, Lys30, Aib31]-PYY(23-36)]	1.3	2.3
Ac-S[αMeP]RH[Cha][Cha]NL[Aib]TRQR[Cha]-NH2 (SMILES CC(=O)N[C@@H](CO)C(=O)N1CCC[C@@]1(C)C(=O)N[C@@H](CCCNC(=N)N)C(=O)N[C@@H](Cc1c[nH]cn1)C(=O)N[C@@H](CC1CCCCC1)C(=O)N[C@@H](CC1CCCCC1)C(=O)N[C@@H](CC(N)=O)C(=O)N[C@@H](CC(C)C)C(=O)NC(C)(C)C(=O)N[C@H](C(=O)N[C@@H](CCCNC(=N)N)C(=O)N[C@@H](CCC(N)=O)C(=O)N[C@@H](CCCNC(=N)N)C(=O)N[C@@H](CC1CCCCC1)C(N)=O)[C@@H](C)O) [Ac-[αMePro24, Cha27,28,36, Aib31]-PYY(23-36)]	1.3	2.8
Isobutyryl-E[dP]R[4Pal][Cha][tBuAla]NK[Aib]TRQR[Cha]-NH2 (SMILES CC(C)C(=O)N[C@@H](CCC(=O)O)C(=O)N1CCC[C@@H]1C(=O)N[C@@H](CCCNC(=N)N)C(=O)N[C@@H](Cc1ccncc1)C(=O)N[C@@H](CC1CCCCC1)C(=O)N[C@@H](CC(C)(C)C)C(=O)N[C@@H](CC(N)=O)C(=O)N[C@@H](CCCCN)C(=O)NC(C)(C)C(=O)N[C@H](C(=O)N[C@@H](CCCNC(=N)N)C(=O)N[C@@H](CCC(N)=O)C(=O)N[C@@H](CCCNC(=N)N)C(=O)N[C@@H](CC1CCCCC1)C(N)=O)[C@@H](C)O) [Isobutanoyl-[Glu23, D-Pro24, Pya(4)26, Cha27,36, Leu(Me)28, Lys30, Aib31]-PYY(23-36)]	0.88	0.43
Ac-S[dP]RH[Cha][Cha]N[Dab][Aib]TRQR[Cha]-NH2 (SMILES CC(=O)N[C@@H](CO)C(=O)N1CCC[C@@H]1C(=O)N[C@@H](CCCNC(=N)N)C(=O)N[C@@H](Cc1c[nH]cn1)C(=O)N[C@@H](CC1CCCCC1)C(=O)N[C@@H](CC1CCCCC1)C(=O)N[C@@H](CC(N)=O)C(=O)N[C@@H](CCN)C(=O)NC(C)(C)C(=O)N[C@H](C(=O)N[C@@H](CCCNC(=N)N)C(=O)N[C@@H](CCC(N)=O)C(=O)N[C@@H](CCCNC(=N)N)C(=O)N[C@@H](CC1CCCCC1)C(N)=O)[C@@H](C)O) [Ac-[D-Pro24, Cha27,28,36, Dab30, Aib31]-PYY(23-36)]	1.6	2.6
Ac-S[d(αMeP)]RH[Cha][Cha]NL[Aib]TRQR[Cha]-NH2 (SMILES CC(=O)N[C@@H](CO)C(=O)N1CCC[C@]1(C)C(=O)N[C@@H](CCCNC(=N)N)C(=O)N[C@@H](Cc1c[nH]cn1)C(=O)N[C@@H](CC1CCCCC1)C(=O)N[C@@H](CC1CCCCC1)C(=O)N[C@@H](CC(N)=O)C(=O)N[C@@H](CC(C)C)C(=O)NC(C)(C)C(=O)N[C@H](C(=O)N[C@@H](CCCNC(=N)N)C(=O)N[C@@H](CCC(N)=O)C(=O)N[C@@H](CCCNC(=N)N)C(=O)N[C@@H](CC1CCCCC1)C(N)=O)[C@@H](C)O) [Ac-[D-αMePro24, Cha27,28,36, Aib31]-PYY(23-36)]	2.6	4.5
Ac-S[dP]R[Cit][Cha][Cha]NL[Aib]TRQR[Cha]-NH2 (SMILES CC(=O)N[C@@H](CO)C(=O)N1CCC[C@@H]1C(=O)N[C@@H](CCCNC(=N)N)C(=O)N[C@@H](CCCNC(N)=O)C(=O)N[C@@H](CC1CCCCC1)C(=O)N[C@@H](CC1CCCCC1)C(=O)N[C@@H](CC(N)=O)C(=O)N[C@@H](CC(C)C)C(=O)NC(C)(C)C(=O)N[C@H](C(=O)N[C@@H](CCCNC(=N)N)C(=O)N[C@@H](CCC(N)=O)C(=O)N[C@@H](CCCNC(=N)N)C(=O)N[C@@H](CC1CCCCC1)C(N)=O)[C@@H](C)O) [Ac-[D-Pro24, Cit26, Cha27,28,36, Aib31]-PYY(23-36)]	1.7	5.5
Ac-S[dAze]RH[Cha][Cha]NL[Aib]TRQR[Cha]-NH2 (SMILES CC(=O)N[C@@H](CO)C(=O)N1CC[C@@H]1C(=O)N[C@@H](CCCNC(=N)N)C(=O)N[C@@H](Cc1c[nH]cn1)C(=O)N[C@@H](CC1CCCCC1)C(=O)N[C@@H](CC1CCCCC1)C(=O)N[C@@H](CC(N)=O)C(=O)N[C@@H](CC(C)C)C(=O)NC(C)(C)C(=O)N[C@H](C(=O)N[C@@H](CCCNC(=N)N)C(=O)N[C@@H](CCC(N)=O)C(=O)N[C@@H](CCCNC(=N)N)C(=O)N[C@@H](CC1CCCCC1)C(N)=O)[C@@H](C)O) [Ac-[D-Aze(2)24, Cha27,28,36, Aib31]-PYY(23-36)]	1.3	1.7
